According to patent US20220088146A1 (PALATIN TECHNOLOGIES, published 2022):
Numbered stars: 1 amine (or outer) side, 2 acyl side, 3 side chain; on linkers, the order of the positions; unused ones are H or OH. Bridge positions count the residues as written; N and C are the ends. Square brackets hold non-standard residues; d marks the D form. * marks the point of attachment. Cyclohexanecarbonyl = O=C(C1CCCCC1)*; Cyclohexylacetyl = O=C(CC1CCCCC1)*; Cyclopentylacetyl = O=C(CC1CCCC1)*; Cyclopropanecarbonyl = O=C(C1CC1)*; Hydrocinnamoyl = O=C(CCc1ccccc1)*; Suc = O=C(CCC(=O)[*:2])[*:1]; Heptanoyl = CCCCCCC(=O)*; Nle = CCCC[C@H](N)C(=O)O; Dab = NCC[C@H](N)C(=O)O; Dap = NC[C@H](N)C(=O)O; Hexanoyl = CCCCCC(=O)*; Pentanoyl = CCCCC(=O)*; PhAc = O=C(Cc1ccccc1)*; Butyryl = CCCC(=O)*

B1: Ac-Nle-cyclo(Glu-His-D-Phe-Arg-Dap)-Trp-NH2 (peptide)
peptide: Ac-[Nle]EH[dF]R[Dap]W-NH2
modifications: lactam 2-6
B2: α-MSH (Ac-Ser-Tyr-Ser-Met-Glu-His-Phe-Arg-Trp-Gly-Lys-Pro-Val-NH2) (ligand)
peptide: Ac-SYSMEHFRWGKPV-NH2
B3: CH3-(CH2)3-C(═O)-cyclo(Glu-His-D-Phe-Arg-Dab)-Trp-NH2 (peptide)
peptide: Pentanoyl-EH[dF]R[Dab]W-NH2
modifications: lactam 1-5
notes: also called 9.16
B4: cyclo(Suc-His-Phe-Arg-Dab)-Trp-NH2 (peptide)
peptide: [Suc]HFR[Dab]W-NH2
modifications: lactam N-5
SMILES: N=C(N)NCCC[C@@H]1NC(=O)[C@H](Cc2ccccc2)NC(=O)[C@H](Cc2c[nH]cn2)NC(=O)CCC(=O)NCC[C@@H](C(=O)N[C@@H](Cc2c[nH]c3ccccc23)C(N)=O)NC1=O
notes: also called 9.14
B5: cyclo-propanoyl-cyclo(Glu-His-D-Phe-Arg-Dab)-Trp-NH2 (peptide)
peptide: Cyclopropanecarbonyl-EH[dF]R[Dab]W-NH2
modifications: lactam 1-5
SMILES: N=C(N)NCCC[C@@H]1NC(=O)[C@@H](Cc2ccccc2)NC(=O)[C@H](Cc2c[nH]cn2)NC(=O)[C@@H](NC(=O)C2CC2)CCC(=O)NCC[C@@H](C(=O)N[C@@H](Cc2c[nH]c3ccccc23)C(N)=O)NC1=O
notes: also called 9.19
B6: Ac-Nle-cyclo(Cys-His-D-Phe-Arg-Cys)-Trp-NH2 (peptide)
peptide: Ac-[Nle]CH[dF]RCW-NH2
modifications: disulfide 2-6
notes: also called 9.5
B7: Ac-Nle-cyclo(Glu-His-Phe-Arg-Dab)-Trp-NH2 (peptide)
peptide: Ac-[Nle]EHFR[Dab]W-NH2
modifications: lactam 2-6
notes: also called 9.8
B8: Ac-Nle-cyclo(Glu-His-D-Phe-Arg-Lys)-Trp-NH2 (peptide)
peptide: Ac-[Nle]EH[dF]RKW-NH2
modifications: lactam 2-6
notes: also called 9.1
B9: CH3-(CH2)4-C(═O)-cyclo(Glu-His-D-Phe-Arg-Dab)-Trp-NH2 (peptide)
peptide: Hexanoyl-EH[dF]R[Dab]W-NH2
modifications: lactam 1-5
notes: also called 9.17
B10: Ac-Phe-cyclo(Glu-His-D-Phe-Arg-Dab)-Trp-NH2 (peptide)
peptide: Ac-FEH[dF]R[Dab]W-NH2
modifications: lactam 2-6
notes: also called 9.13
B11: phenyl acetyl-cyclo(Glu-His-D-Phe-Arg-Dab)-Trp-NH2 (peptide)
peptide: PhAc-EH[dF]R[Dab]W-NH2
modifications: lactam 1-5
notes: also called 9.23
B12: CH3-(CH2)2-C(═O)-cyclo(Glu-His-D-Phe-Arg-Dab)-Trp-NH2 (peptide)
peptide: Butyryl-EH[dF]R[Dab]W-NH2
modifications: lactam 1-5
notes: also called 9.15
B13: cyclo-hexanoyl-cyclo(Glu-His-D-Phe-Arg-Dab)-Trp-NH2 (peptide)
peptide: Cyclohexanecarbonyl-EH[dF]R[Dab]W-NH2
modifications: lactam 1-5
notes: also called 9.20
B14: cyclohexyl acetyl-cyclo(Glu-His-D-Phe-Arg-Dab)-Trp-NH2 (peptide)
peptide: Cyclohexylacetyl-EH[dF]R[Dab]W-NH2
modifications: lactam 1-5
notes: also called 9.22
B15: cyclopentyl acetyl-cyclo(Glu-His-D-Phe-Arg-Dab)-Trp-NH2 (peptide)
peptide: Cyclopentylacetyl-EH[dF]R[Dab]W-NH2
modifications: lactam 1-5
notes: also called 9.21
B16: CH3-(CH2)5-C(═O)-cyclo(Glu-His-D-Phe-Arg-Dab)-Trp-NH2 (peptide)
peptide: Heptanoyl-EH[dF]R[Dab]W-NH2
modifications: lactam 1-5
notes: also called 9.18
B17: phenyl propanoyl-cyclo(Glu-His-D-Phe-Arg-Dab)-Trp-NH2 (peptide)
peptide: Hydrocinnamoyl-EH[dF]R[Dab]W-NH2
modifications: lactam 1-5
notes: also called 9.24

What follows are binders tested against melanocortin-2 receptor (UniProt Q01718 1-297) (assay: cell-based or functional assay).
Sequence of melanocortin-2 receptor (Q01718 whole entry): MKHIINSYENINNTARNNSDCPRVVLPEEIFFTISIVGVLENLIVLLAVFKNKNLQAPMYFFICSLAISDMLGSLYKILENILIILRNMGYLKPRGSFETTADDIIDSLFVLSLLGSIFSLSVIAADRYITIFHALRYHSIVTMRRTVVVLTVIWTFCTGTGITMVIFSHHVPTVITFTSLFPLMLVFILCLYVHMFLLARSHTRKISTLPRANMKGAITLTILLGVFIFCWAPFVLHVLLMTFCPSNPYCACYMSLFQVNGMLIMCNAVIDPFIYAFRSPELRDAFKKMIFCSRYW

| Functional - CEREP (EC50; nM) [nM] | Binder |
| --- | --- |
| > 10000 | B1 |
| > 10000 | B2 |

The binders below were run against melanocortin-3 receptor (UniProt P41968 1-323) (assay: cell-based or functional assay).
Sequence of melanocortin-3 receptor (P41968 whole entry): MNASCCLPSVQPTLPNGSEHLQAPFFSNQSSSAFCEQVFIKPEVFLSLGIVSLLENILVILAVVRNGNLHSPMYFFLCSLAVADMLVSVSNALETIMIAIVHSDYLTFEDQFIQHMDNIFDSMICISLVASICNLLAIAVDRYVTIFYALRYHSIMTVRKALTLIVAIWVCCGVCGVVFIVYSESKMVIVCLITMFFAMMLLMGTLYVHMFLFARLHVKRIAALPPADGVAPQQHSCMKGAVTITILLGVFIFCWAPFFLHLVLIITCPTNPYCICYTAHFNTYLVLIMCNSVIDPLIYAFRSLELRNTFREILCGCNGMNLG

| Functional - CEREP (EC50; nM) [nM] | Binder |
| --- | --- |
| > 10000 | B1 |

These binders were tested against melanocortin-5 receptor (UniProt P33032 1-325) (assay: cell-based or functional assay).
Sequence of melanocortin-5 receptor (P33032 whole entry): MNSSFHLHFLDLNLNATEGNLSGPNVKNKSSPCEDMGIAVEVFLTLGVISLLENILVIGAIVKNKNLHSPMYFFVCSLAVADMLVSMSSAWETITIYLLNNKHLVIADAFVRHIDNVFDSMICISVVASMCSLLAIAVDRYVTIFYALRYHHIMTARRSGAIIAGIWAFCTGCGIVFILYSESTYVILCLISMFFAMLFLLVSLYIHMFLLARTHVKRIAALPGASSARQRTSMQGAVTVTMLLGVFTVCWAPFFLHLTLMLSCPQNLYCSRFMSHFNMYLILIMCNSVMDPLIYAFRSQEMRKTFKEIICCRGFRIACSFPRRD

| Functional - CEREP (EC50; nM) [nM] | Binder |
| --- | --- |
| > 10000 | B1 |

What follows are binders tested against T1, human melanocortin-4 receptor (human, UniProt P32245 1-332) (assay: [I125]-NDP-α-MSH competition, hMC4r HEK-293 membranes).
T1 construct: whole, on cells; Ki assay used membrane homogenates of HEK-293 cells expressing recombinant hMC4r; also called MC4r; hMC4r
T1 sequence (P32245 whole entry): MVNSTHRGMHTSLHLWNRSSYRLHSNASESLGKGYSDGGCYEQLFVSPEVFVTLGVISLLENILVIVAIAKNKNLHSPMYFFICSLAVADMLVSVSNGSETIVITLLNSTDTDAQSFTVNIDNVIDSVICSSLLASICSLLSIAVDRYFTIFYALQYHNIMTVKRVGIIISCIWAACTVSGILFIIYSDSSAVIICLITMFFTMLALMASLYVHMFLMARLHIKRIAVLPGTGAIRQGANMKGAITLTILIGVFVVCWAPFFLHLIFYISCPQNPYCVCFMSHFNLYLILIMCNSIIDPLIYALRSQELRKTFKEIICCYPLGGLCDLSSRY

| Ki [µM] | Binder |
| --- | --- |
| 0.365 | B3 |
| 10 | B4 |
| 0.64 | B5 |
| 0.54 | B6 |
| 10 | B7 |
| 0.045 | B8 |
| 0.11 | B9 |
| 0.51 | B10 |
| 0.205 | B11 |
| 0.89 | B12 |
| 0.165 | B13 |
| 0.063 | B14 |
| 0.093 | B15 |
| 0.1 | B16 |
| 0.285 | B17 |

The binders below were run against T2, human melanocortin-1 receptor (human, UniProt Q01726 1-317) (assay: cell-based or functional assay).
T2 sequence (Q01726 whole entry): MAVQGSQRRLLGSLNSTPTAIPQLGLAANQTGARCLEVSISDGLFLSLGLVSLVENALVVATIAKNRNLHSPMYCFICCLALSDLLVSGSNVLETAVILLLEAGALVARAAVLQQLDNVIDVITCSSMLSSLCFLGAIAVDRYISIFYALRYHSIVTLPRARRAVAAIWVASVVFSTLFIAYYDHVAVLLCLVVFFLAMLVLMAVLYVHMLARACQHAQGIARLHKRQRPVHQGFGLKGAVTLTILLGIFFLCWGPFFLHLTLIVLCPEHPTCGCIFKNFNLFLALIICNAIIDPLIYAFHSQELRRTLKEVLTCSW

| MC-1 Emax (average; cAMP HBL) [%] | MC-1 EC50 (average; cAMP HBL) [µM] | Binder |
| --- | --- | --- |
| 89 | – | B3 |
| 80 | 0.031 | B4 |
| 83 | – | B5 |
| 87 | – | B6 |
| 88 | – | B7 |
| 97 | – | B8 |
| 90 | – | B9 |
| 75 | – | B10 |
| 82 | – | B11 |
| 91 | – | B12 |
| 79 | – | B13 |
| 85 | – | B14 |
| 83 | – | B15 |
| 87 | – | B16 |
| 83 | – | B17 |

The binders below were run against T2, human melanocortin-1 receptor (assay: [I125]-NDP-α-MSH competition, hMC1r HEK-293 membranes).

| Ki [µM] | Binder |
| --- | --- |
| 0.31 | B4 |
| 0.003 | B5 |
